Measured values as given in patent US12564637B2, “Nucleic acid mazzocchio and methods of making and use thereof” (The University of Hong Kong, priority 2019, dated 2026).

What was measured:
[1] = Diameter of the nanostructure by transmission electron microscopy (TEM); assay type: physicochemical; settings: images analyzed by ImageJ
Experimental: TEM was used to characterize the final DNA mazzocchio nanostructure. 5 μl of DNA mazzocchio samples were first adsorbed onto glow-discharged 400 mesh copper grids (Ted Pella, Inc.) for 1 minute. This was followed by staining with 2% uranyl acetate for 1 minute. The stained samples were washed twice by distilled water to remove excess uranyl acetate. Stained DNA mazzocchio samples on the grid were visualized using a Philips CM 100 Transmission Electron Microscope with 100 kV operating voltage. Electron photomicrographs of DNA mazzocchio were captured with magnification from 73,000×-105,000× on different positions of the grid. To experimentally determine the diameter of the DNA mazzocchio, images were analyzed by the ImageJ software.

[2] = Doxorubicin loading/encapsulation by quenching of doxorubicin fluorescence; assay type: binding
Experimental: The DNA mazzocchio (from Example 1) and DNA tetrahedron nanostructures were made through an annealing process. The multiple single-stranded DNAs were mixed in equal ratio and placed in a thermal cycler to heat up (95° C. for 5 minutes) followed by slow cooling (overnight down to 20° C.).
10 μM of doxorubicin was incubated with various concentrations of the DNA mazzocchio and DNA tetrahedron nanostructures (as shown on the X-axis of FIG. 2) for 1 hour at room temperature. Then, 13 μl of mixture was placed in a 384-well microtiter plate and inserted in the plate reader. The fluorescence was measured using a plate reader (Varioskan Flash by Thermo Fisher Scientific) at the following parameters: Excitation 488 nm/Emission 595 nm; bandwidth 12 nm; measurement time: 500 ms. Error bars were obtained as standard error from triplicate experiments.
Since the intercalation of doxorubicin inhibited its fluorescence, the loading efficiency could be determined by the half maximal inhibitory concentration (IC50).

B1: mazzocchio: DNA nanostructure of 16 hexagonal subunits, each composed of 12 single-stranded DNA oligonucleotides (SEQ ID NOs: 1-12) (nucleic acid)
chain 1: GATAGGCCGAGATCTGAGGATGCTGGCTCACGCCATTGGCTCGCGACCCCGTCCGCTAGACGTTATGCACAAGGCGTTGTCATTAGATGCTTAGGTGCTCAGGCCGTAATGAGGCCGCTTGGCTGCGTTCCTCCGCCGCTTGGGAACAGCCCCGC
chain 2: TCCAGCTCTGCGGACGGGGTCGCGAGCCATTCGAGGGCT
chain 3: TCGCCTGTAATACGCCTTGTGCATAACGTCTTGCCAACCC
chain 4: TGCCCGTACCCTGGTGCACCTAAGCATCTAATGACTCTGCGGAAGA
chain 5: TACCCCACTTTAGCGATAGCGGCCTCATTACGGCCTGTGCTACCCGTACGGA
chain 6: ATCAGTACGATTGGCGTGAGCCAGCATCCTCTAGCGGCGGAGGAACGCAGCCTAGGCGGAACTCTTCGG
chain 7: TCGCTAAAGTGGGGTACCGAAGAGTTCCGCCT
chain 8: GATCTCGGCCTATCGCGGGGCTGTTCCC
chain 9: TCGTACTGATGAGCCCTCGA
chain 10: GAGCTGGAGGGTTGGC
chain 11: TTACAGGCGATCTTCCGCAG
chain 12: CCAGGGTACGGGCATCCGTACGGGTAGC
modifications: 16 hexagonal subunits assembled; Synthetic sequence - strand 1; Synthetic sequence - strand 2; Synthetic sequence - strand 3; Synthetic sequence - strand 4; Synthetic sequence - strand 5; Synthetic sequence - strand 6; Synthetic sequence - strand 7; Synthetic sequence - strand 8; Synthetic sequence - strand 9; Synthetic sequence - strand 10; Synthetic sequence - strand 11; Synthetic sequence - strand 12
average diameter of the nanostructures [1]: 49.30±10.37 nm | IC50 ([2]; 10 μM doxorubicin, 1 hour at room temperature, Ex 488 nm/Em 595 nm, triplicate, read-out: half maximal inhibitory concentration (IC50) of doxorubicin fluorescence (loading efficiency)): 480 nM | effectiveness in carrying doxorubicin as compared to the tetrahedron ([2]; comparison of the IC50 values): three times more effective
